± gives the uncertainty stated by the source.
B1: Lysine-specific demethylase 5C, residues 319 to 373; numbered along this chain, P41229 (parent)
chain: AQFIESYVCRMCSRGDEDDKLLLCDGCDDNYHIFCLLPPLPEIPKGVWRCPKCVM

Variants of: B1
Assay: abundance fitness (aPCA) (normalised: wild type 0, dead -1); higher = more abundant; growth selection in yeast, the domain comes from the species named
Details: Homo sapiens

Variant | abundance fitness
Q2V | -0.153 ± 0.27
Q2T | 0.203 ± 0.2
Q2W | -0.057 ± 0.21
Q2Y | -0.053 ± 0.17
D18I | 0.125 ± 0.14
D18A | 0.112 ± 0.087
D18E | 0.042 ± 0.092
D18N | -0.087 ± 0.18
D18K | 0.184 ± 0.097
D18Q | 0.224 ± 0.11
D18L | 0.052 ± 0.078
D18F | 0.157 ± 0.14
D18C | -0.178 ± 0.18
D18H | 0.324 ± 0.18
D18V | 0.034 ± 0.078
D18R | 0.087 ± 0.083
D18W | 0.035 ± 0.1
D18M | 0.107 ± 0.11
D18Y | -0.284 ± 0.16
D18T | -0.065 ± 0.12
D18G | 0.183 ± 0.076
D18P | 0.176 ± 0.09
D18S | 0.028 ± 0.093
D19G | 0.08 ± 0.1

Variant | abundance fitness
D19Y | -0.335 ± 0.13
D19Q | -0.014 ± 0.13
D19T | 0.242 ± 0.097
D19M | -0.254 ± 0.1
D19P | -0.15 ± 0.098
D19E | -0.091 ± 0.16
D19N | 0.04 ± 0.1
D19H | -0.032 ± 0.098
D19L | -0.162 ± 0.07
D19W | -0.146 ± 0.098
D19V | -0.102 ± 0.086
D19A | 0.063 ± 0.1
D19K | 0.064 ± 0.094
D19F | -0.103 ± 0.1
D19R | -0.03 ± 0.081
D19S | -0.089 ± 0.072
D19I | -0.198 ± 0.16
D19C | 0.019 ± 0.11
S13F | -0.2 ± 0.15
S13R | 0.007 ± 0.09
S13N | -0.212 ± 0.17
S13Q | -0.183 ± 0.16
S13P | -0.13 ± 0.14
S13C | -0.171 ± 0.14

Variant | abundance fitness
S13K | -0.196 ± 0.26
S13W | -0.237 ± 0.17
S13Y | -0.149 ± 0.15
S13A | -0.231 ± 0.1
S13I | -0.029 ± 0.16
S13V | -0.121 ± 0.1
S13G | 0.074 ± 0.1
S13D | -0.042 ± 0.18
S13H | -0.239 ± 0.2
S13T | -0.035 ± 0.12
S13E | 0.419 ± 0.15
S13L | 0.044 ± 0.095
L22S | -0.474 ± 0.092
L22C | -0.052 ± 0.13
L22V | -0.163 ± 0.11
L22N | -0.4 ± 0.14
L22G | -0.912 ± 0.16
L22D | -1.1 ± 0.37
L22K | -0.332 ± 0.13
L22R | -0.169 ± 0.078
L22W | -0.838 ± 0.16
L22A | -0.243 ± 0.098
L22E | -0.523 ± 0.17
L22P | -0.897 ± 0.2

Variant | abundance fitness
L22Q | -0.561 ± 0.23
L22Y | -1.07 ± 0.45
L22M | 0.05 ± 0.1
L22F | -0.551 ± 0.24
L22H | -0.612 ± 0.23
K20F | -0.16 ± 0.17
K20P | -0.043 ± 0.12
K20M | -0.596 ± 0.2
K20T | 0.096 ± 0.13
K20N | -0.327 ± 0.23
K20G | -0.666 ± 0.2
K20W | -0.317 ± 0.24
K20L | -0.087 ± 0.099
K20Y | -0.035 ± 0.22
K20C | -0.379 ± 0.3
K20Q | -0.093 ± 0.14
K20I | -0.489 ± 0.19
K20H | -0.103 ± 0.19
K20R | -0.136 ± 0.15
K20A | -0.065 ± 0.13
K20V | -0.253 ± 0.14
G15E | 0.049 ± 0.12
G15L | -0.113 ± 0.064
G15Q | -0.124 ± 0.086

Variant | abundance fitness
G15D | -0.058 ± 0.12
G15A | -0.037 ± 0.084
G15P | 0.04 ± 0.074
G15T | 0.029 ± 0.076
G15Y | -0.027 ± 0.11
G15N | -0.231 ± 0.099
G15S | 0.155 ± 0.066
G15R | 0.035 ± 0.075
G15H | -0.391 ± 0.14
G15F | -0.008 ± 0.1
G15K | 0.086 ± 0.089
G15M | -0.142 ± 0.1
G15I | -0.065 ± 0.1
G15C | 0.167 ± 0.12
G15W | -0.169 ± 0.12
G15V | -0.025 ± 0.096
C12P | -0.52 ± 0.17
C12G | -0.756 ± 0.24
C12E | -0.797 ± 0.33
C12A | -0.99 ± 0.38
C12Y | -0.87 ± 0.25
C12M | -0.669 ± 0.37
C12H | -0.825 ± 0.26
C12N | -0.713 ± 0.37

Variant | abundance fitness
C12R | -0.586 ± 0.15
C12S | -0.855 ± 0.13
C12W | -0.853 ± 0.2
C12K | -0.435 ± 0.18
C12I | -1.14 ± 0.32
C12L | -0.344 ± 0.09
C12T | -0.683 ± 0.26
C12F | -0.731 ± 0.15
R14S | 0.188 ± 0.16
F3I | -0.17 ± 0.17
F3T | -0.046 ± 0.17
F3A | -0.12 ± 0.12
F3H | -0.095 ± 0.2
F3S | 0.06 ± 0.1
F3M | 0.095 ± 0.17
F3Q | -0.201 ± 0.18
F3Y | -0.043 ± 0.19
F3G | 0.022 ± 0.14
F3N | 0.182 ± 0.17
F3W | -0.639 ± 0.28
F3E | -0.114 ± 0.2
F3C | -0.193 ± 0.14
F3P | -0.141 ± 0.2
F3D | -0.418 ± 0.36

Variant | abundance fitness
F3V | 0.042 ± 0.11
F3L | 0.005 ± 0.1
F3K | 0.016 ± 0.14
F3R | 0.072 ± 0.12
V8K | 0.254 ± 0.19
V8A | -0.092 ± 0.097
V8G | -0.106 ± 0.12
V8W | -0.247 ± 0.16
V8L | -0.243 ± 0.11
V8Y | -0.157 ± 0.2
V8F | -0.28 ± 0.24
V8R | -0.075 ± 0.098
V8T | -0.039 ± 0.15
V8I | -0.241 ± 0.14
V8D | -0.315 ± 0.19
V8C | -0.258 ± 0.16
V8N | 0.083 ± 0.22
V8H | -0.11 ± 0.12
V8M | -0.052 ± 0.15
V8Q | -0.11 ± 0.15
V8P | -0.12 ± 0.095
V8S | 0.007 ± 0.1
V8E | -0.266 ± 0.18

Source: the Human Domainome abundance scans (Beltran et al. 2025)
